Experimental data taken from the RNAGym collection of RNA variant scans (doi:10.1021/acssynbio.7b00057).

B1: Pistol ribozyme (parent)
chain: GGGUCGUUGUUCCAUAAUCGCGUGGAUAUGGCACGCAAGUUUCUACCGGGCACCGUAAAUGUCCGACUGGAGCCGUUCGGGCGGCUAUAAACAGACCUCAGGCCCGAAGCGUGGCGGCACCUGCCGCCGGUGGUAAAAAAGAUCGGAAGAGCACACGUCU

Variants of: B1
Assay: aptazyme ON/OFF ratio, guanine; higher = stronger switching; co-transcriptional cleavage with and without guanine

Row | Variant | aptazyme ON/OFF ratio
1 | U7A U8A U10C C12U C13U | 1.14
2 | U7A U8A U10A U11G C12G C13G | 1.6
3 | U7A U8A U10A U11G C12G C13A | 0.986
4 | U7A U8A U10A U11G C12G C13U | 1.35
5 | U7A U8A U10G U11G C12G C13G | 1.09
6 | U7A U8A U10G U11G C12G C13U | 1.4
7 | U7A U8A U10G U11G C12G C13A | 1.07
8 | U7A U8C G9A U10A U11A C12G C13G | 1.13
9 | U7A U8C G9A U10A U11A C12G C13U | 1.21
10 | U7A U8C G9A U10A U11A C12G C13A | 1.11
11 | U7A U8A U10C U11C C12G C13G | 1.21
12 | U7A U8A U10C U11C C12G C13A | 1.1
13 | U7A U8A U10C U11C C12G C13U | 1.08
14 | U7A U8A U10G U11A C12G C13G | 1.16
15 | U7A U8A U10G U11A C12G C13A | 1.2
16 | U7A U8A U10G U11A C12G C13U | 1.51
17 | U7A U8C G9A C12G C13A | 1.13
18 | U7A U8C G9A C12G C13U | 1.2
19 | U7A U8C G9A C12G C13G | 1.12
20 | U7A U8C | 1.98
21 | U7A U8C C12A | 1.42

Row | Variant | aptazyme ON/OFF ratio
22 | U7A U8C C12G | 1.18
23 | U7A U8C C12U | 1.49
24 | U7A U8A U11G C13A | 1.16
25 | U7A U8A U11G C13G | 1.1
26 | U7A U8A U11G C13U | 1.2
27 | U7A U8C G9A U10A U11C | 1.07
28 | U7A U8C G9A U10A U11A | 1.19
29 | U7A U8C G9A U10A U11G | 1.26
30 | U7A U8A U11A C12A C13G | 1.28
31 | U7A U8A U11A C12A C13U | 1.26
32 | U7A U8A U11A C12A C13A | 1.33
33 | U7A U8A U10C C12G C13A | 1.17
34 | U7A U8A U10C C12G C13G | 1.19
35 | U7A U8A U10C C12G C13U | 1.26
36 | U7A U8C G9A U10A U11G C12U C13A | 1.2
37 | U7A U8C G9A U10A U11G C12U C13G | 1.24
38 | U7A U8C G9A U10A U11G C12U C13U | 1.31
39 | U7A U8C C12G C13G | 1.19
40 | U7A U8C C12G C13A | 1.18
41 | U7A U8C C12G C13U | 1.35
42 | U7A U8C G9A U10A U11G C12A | 1.06

Row | Variant | aptazyme ON/OFF ratio
43 | U7A U8C G9A U10A U11G C12G | 1.16
44 | U7A U8C G9A U10A U11G C12U | 1.45
45 | U7A U8A U10G U11C C13U | 1.04
46 | U7A U8A U10G U11C C13G | 1.11
47 | U7A U8A U10G U11C C13A | 1.17
48 | U7A U8C G9A U10C U11C C12G | 1.11
49 | U7A U8C G9A U10C U11C C12A | 1.18
50 | U7A U8C G9A U10C U11A C12A C13A | 1.13
51 | U7A U8C G9A U10C U11A C12A C13G | 1.1
52 | U7A U8C G9A U10C U11A C12A C13U | 1.19
53 | U7A U8C G9A U10A U11A C12U C13G | 1.11
54 | U7A U8C G9A U10A U11A C12U C13A | 1.13
55 | U7A U8C G9A U10A U11A C12U C13U | 1.3
56 | U7A U8A U11C C12G C13A | 1.25
57 | U7A U8A U11C C12G C13U | 1.46
58 | U7A U8A U11C C12G C13G | 1.24
59 | U7A U8C G9A U10C | 2.35
60 | U7A U8C G9A U10A | 1.37
61 | U7A U8C C12U C13A | 1.3
62 | U7A U8C C12U C13U | 1.27
63 | U7A U8C C12U C13G | 1.27

Row | Variant | aptazyme ON/OFF ratio
64 | U7A U8C G9A U10A U11G C12A C13G | 1.23
65 | U7A U8C G9A U10A U11G C12A C13A | 1.08
66 | U7A U8C G9A U10A U11G C12A C13U | 1.16
67 | U7A U8A U10C U11G C13G | 1.2
68 | U7A U8A U10C U11G C13U | 1.17
69 | U7A U8A U10C U11G C13A | 1.13
70 | U7A U8C G9A U10A U11C C13A | 1.02
71 | U7A U8C G9A U10A U11C C13G | 1.03
72 | U7A U8C G9A U10A U11C C13U | 1.04
73 | U7A U8C G9A U10C U11A C12U C13A | 1.12
74 | U7A U8C G9A U10C U11A C12U C13U | 1.18
75 | U7A U8C G9A U10C U11A C12U C13G | 1.15
76 | U7A U8A U11C C12A C13A | 1.02
77 | U7A U8A U11C C12A C13U | 1.69
78 | U7A U8A U11C C12A C13G | 1.42
79 | U7A U8A U10C C12A C13A | 1.13
80 | U7A U8A U10C C12A C13U | 1.18
81 | U7A U8A U10C C12A C13G | 1.08
82 | U7A U8C G9A U10C U11A C12G C13G | 1.22
83 | U7A U8C G9A U10C U11A C12G C13U | 1.09
84 | U7A U8C G9A U10C U11A C12G C13A | 1.1
